Publication PMC11191641

Biological target: His-tagged ferritin-based nanoparticle (FNP): Helicobacter pylori ferritin with N-terminal domain B (S. aureus | Helicobacter pylori)
Assay: BLI
Settings: Fc fusion

Substance: NiV-B-G-Fc: Nipah virus Bangladesh attachment glycoprotein G (residues 176-602) fused with a C-terminal human IgG1 Fc (from UniProt P01857)
- Kd: 9.46 nM
